Measurements as given in patent publication US20230203119A1 (IGM BIOSCIENCES, published 2023).
Numbering of substitutions follows the chain as printed. Names may count otherwise.

T1: IL-15 receptor (β and γ subunits) on human CD8 T cells and NK cells (human, UniProt P14784 27-551; P31785 23-369)
T1 sequence (looked up) 1: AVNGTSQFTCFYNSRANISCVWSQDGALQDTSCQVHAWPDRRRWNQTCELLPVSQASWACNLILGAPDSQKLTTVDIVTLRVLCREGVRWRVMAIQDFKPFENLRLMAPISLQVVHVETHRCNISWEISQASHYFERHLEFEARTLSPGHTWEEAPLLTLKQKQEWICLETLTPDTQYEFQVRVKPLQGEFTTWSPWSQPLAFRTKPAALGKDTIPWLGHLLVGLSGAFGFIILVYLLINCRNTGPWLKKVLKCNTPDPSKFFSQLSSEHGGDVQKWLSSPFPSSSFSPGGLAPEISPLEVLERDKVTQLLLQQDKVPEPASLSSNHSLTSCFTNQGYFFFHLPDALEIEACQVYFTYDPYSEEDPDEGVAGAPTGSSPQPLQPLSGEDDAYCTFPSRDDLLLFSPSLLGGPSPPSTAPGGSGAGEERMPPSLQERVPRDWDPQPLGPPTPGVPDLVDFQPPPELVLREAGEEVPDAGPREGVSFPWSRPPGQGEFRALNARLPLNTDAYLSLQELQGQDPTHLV
T1 sequence (looked up) 2: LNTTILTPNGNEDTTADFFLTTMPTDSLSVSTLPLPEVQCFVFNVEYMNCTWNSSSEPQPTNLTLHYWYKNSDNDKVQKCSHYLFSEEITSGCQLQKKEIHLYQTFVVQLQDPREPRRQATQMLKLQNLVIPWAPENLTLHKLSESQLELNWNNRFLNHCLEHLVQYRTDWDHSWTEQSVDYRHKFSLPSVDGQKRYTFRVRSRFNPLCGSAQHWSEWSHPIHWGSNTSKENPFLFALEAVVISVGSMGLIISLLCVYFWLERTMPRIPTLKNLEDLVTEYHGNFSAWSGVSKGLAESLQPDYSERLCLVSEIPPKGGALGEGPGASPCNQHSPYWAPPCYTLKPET

T2: IL-15 receptor (β and γ subunits) on cynomolgus CD8 T cells (cynomolgus, UniProt Q38J85 27-551; A0A2K5VGJ6 23-369)
T2 sequence (looked up) 1: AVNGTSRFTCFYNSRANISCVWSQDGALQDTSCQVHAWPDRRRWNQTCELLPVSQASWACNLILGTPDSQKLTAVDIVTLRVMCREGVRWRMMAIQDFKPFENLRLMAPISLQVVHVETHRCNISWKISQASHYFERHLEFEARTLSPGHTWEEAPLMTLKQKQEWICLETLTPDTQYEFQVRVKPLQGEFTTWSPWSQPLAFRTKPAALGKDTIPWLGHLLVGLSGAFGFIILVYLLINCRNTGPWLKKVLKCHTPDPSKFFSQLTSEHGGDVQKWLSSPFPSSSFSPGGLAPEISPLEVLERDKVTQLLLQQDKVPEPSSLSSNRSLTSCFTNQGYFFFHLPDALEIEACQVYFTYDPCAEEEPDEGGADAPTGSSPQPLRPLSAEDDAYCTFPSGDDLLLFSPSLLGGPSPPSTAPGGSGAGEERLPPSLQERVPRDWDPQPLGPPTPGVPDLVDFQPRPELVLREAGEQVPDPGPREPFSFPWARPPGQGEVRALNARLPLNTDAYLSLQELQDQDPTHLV
T2 sequence (looked up) 2: T1 sequence (looked up) 2 with T14A, A16T, T22S, H141R, T228S, A326P

B1: 153 IgM + J*RI (anti-CD20 IgM antibody 153 with modified J-chain J*RI) (antibody)
VH: EVQLVQSGAEVKKPGESLKISCKGSGYSFTSYWIGWVRQMPGKGLEWMGIIYPGDSDTRYSPSFQGQVTISADKSITTAYLQWSSLKASDTAMYYCARHPSYGSGSPNFDYWGQGTLVTVSS
VL: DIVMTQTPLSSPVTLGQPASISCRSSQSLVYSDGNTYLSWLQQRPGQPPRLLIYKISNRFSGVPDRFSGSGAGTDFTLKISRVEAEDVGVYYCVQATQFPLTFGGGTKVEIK
chain: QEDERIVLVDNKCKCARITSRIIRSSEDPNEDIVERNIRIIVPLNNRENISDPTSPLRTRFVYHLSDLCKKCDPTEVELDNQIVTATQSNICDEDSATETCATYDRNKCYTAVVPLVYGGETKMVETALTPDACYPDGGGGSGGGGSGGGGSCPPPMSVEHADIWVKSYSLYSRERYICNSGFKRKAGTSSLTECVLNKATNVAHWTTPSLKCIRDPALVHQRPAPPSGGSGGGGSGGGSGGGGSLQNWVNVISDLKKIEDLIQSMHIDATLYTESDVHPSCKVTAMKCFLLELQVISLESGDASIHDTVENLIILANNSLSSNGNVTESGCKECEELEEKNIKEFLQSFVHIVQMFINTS
B2: KD-RI (anti-PD-L1 IgG with human IL-15Ralpha sushi domain and human IL-15 fused to its C-terminus) (antibody)
heavy: not shown
light: QSALTQPASVSGSPGQSITISCTGTSSDVGAYNYVSWYQQHPGKAPKLMIYDVSNRPSGVSNRFSGSKSGNTASLTISGLQAEDEADYYCSSYTSSSTRVFGTGTKVTVLGQPKANPTVTLFPPSSEELQANKATLVCLISDFYPGAVTVAWKADGSPVKAGVETTKPSKQSNNKYAASSYLSLTPEQWKSHRSYSCQVTHEGSTVEKTVAPTEC
notes: Heavy chain fusion protein and light chain as described in U.S. Pat. No. 10,407,502
B3: h3C5 IgM + J*RI (anti-PD-L1 IgM pentamer with modified J-chain J*RI) (antibody)
VH: QVQLQESGPGLVKPSETLSLTCTVSGFSLTSYDISWIRQPPGKGLEWIGVIWTGVGTNYNPSLKSRVTISVDTSKNQFSLKLSSVTAADTAVYYCARDPYYYGMDYWGQGTLVTVSS
VL: DIQMTQSPSSLSASVGDRVTITCRASQDISIWLSWYQQKPGKAPKLLIYKASNLHTGVPSRFSGSGSGTDFTLTISSLQPEDFATYYCLQSQSFPRTFGQGTKLEIK
chain: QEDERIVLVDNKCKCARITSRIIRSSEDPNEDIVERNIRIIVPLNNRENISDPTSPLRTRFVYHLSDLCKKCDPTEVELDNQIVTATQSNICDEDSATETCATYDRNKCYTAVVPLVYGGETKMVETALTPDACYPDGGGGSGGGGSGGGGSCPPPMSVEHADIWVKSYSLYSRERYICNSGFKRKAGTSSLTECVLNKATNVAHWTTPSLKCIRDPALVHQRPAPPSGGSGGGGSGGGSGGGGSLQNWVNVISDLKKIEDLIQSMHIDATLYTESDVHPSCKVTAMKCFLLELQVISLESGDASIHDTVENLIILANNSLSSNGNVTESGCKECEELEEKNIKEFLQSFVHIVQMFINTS
notes: IgM pentamer; Third chain is the modified J-chain J*RI (J* Y102A - IL-15Ralpha sushi - IL-15); also called H1-3C5 + J*RI; h3C5 + J*RI
B4: m3c5-J*RI (anti-PD-L1 human IgM pentamer with m3c5 VH/VL and modified J-chain J*RI) (antibody)
VH: QVQLKESGPGLVAPSQSLSITCTVSGFSLTSYDISWVRQPPGKGLEWLGVIWTGVGTNYNSAFMSRLSISKDNSKSQVFLKMNSLQTDDTAMYYCVRDPYYYGMDYWGQGTSVTVSS
VL: B3 VL with T5N, V15L, R18T, V19I, K42N, A43I, K45E, S60P, F83I, Q100G
chain: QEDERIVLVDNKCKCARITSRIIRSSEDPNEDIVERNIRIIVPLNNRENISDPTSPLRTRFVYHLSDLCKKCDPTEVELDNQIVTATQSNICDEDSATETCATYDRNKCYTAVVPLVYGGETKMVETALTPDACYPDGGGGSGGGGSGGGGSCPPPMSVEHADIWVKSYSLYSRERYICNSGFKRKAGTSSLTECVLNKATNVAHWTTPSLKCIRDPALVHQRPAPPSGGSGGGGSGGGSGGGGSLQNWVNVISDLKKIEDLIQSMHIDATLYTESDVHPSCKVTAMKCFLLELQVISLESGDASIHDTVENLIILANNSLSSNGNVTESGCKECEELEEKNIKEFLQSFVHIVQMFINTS
B5: h3C5 IgM + J* (anti-PD-L1 IgM pentamer with J-chain variant Y102A, no IL-15) (antibody)
VH: B3 VH
VL: B3 VL
chain: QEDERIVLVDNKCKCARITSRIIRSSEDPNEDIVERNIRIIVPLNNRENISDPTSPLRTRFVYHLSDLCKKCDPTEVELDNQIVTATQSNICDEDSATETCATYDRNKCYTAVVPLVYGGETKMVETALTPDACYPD
B6: h3C5 IgM + JH (anti-PD-L1 IgM pentamer with J-chain fused to human serum albumin) (antibody)
VH: B3 VH
VL: B3 VL
chain: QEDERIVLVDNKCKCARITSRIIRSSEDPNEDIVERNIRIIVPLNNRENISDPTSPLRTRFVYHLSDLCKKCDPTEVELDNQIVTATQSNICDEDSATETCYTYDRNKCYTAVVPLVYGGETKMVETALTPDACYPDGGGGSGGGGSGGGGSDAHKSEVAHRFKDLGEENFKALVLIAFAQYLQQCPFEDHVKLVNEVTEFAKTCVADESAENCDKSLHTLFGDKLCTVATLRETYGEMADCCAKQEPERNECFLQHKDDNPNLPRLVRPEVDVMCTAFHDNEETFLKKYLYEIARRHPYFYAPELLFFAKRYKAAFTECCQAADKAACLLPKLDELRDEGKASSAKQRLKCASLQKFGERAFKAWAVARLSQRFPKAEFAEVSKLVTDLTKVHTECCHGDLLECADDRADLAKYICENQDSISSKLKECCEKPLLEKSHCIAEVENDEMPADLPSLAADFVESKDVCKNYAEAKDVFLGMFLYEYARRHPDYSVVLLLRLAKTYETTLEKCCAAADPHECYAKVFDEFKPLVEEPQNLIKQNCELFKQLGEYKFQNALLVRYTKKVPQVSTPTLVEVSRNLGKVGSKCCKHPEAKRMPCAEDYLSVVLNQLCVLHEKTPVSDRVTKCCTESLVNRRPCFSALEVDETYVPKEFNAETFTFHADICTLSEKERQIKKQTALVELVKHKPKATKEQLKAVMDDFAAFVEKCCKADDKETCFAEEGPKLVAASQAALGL
notes: IgM pentamer; Third chain is the modified J-chain J15HSA (no IL-15); also called H1-3C5 + JH; hu3C5+JH
B7: h3C5 IgM + SJ*RI (anti-PD-L1 IgM pentamer with modified J-chain SP34 scFv-J*-R-I) (bispecific antibody)
VH: B3 VH
VL: B3 VL
chain: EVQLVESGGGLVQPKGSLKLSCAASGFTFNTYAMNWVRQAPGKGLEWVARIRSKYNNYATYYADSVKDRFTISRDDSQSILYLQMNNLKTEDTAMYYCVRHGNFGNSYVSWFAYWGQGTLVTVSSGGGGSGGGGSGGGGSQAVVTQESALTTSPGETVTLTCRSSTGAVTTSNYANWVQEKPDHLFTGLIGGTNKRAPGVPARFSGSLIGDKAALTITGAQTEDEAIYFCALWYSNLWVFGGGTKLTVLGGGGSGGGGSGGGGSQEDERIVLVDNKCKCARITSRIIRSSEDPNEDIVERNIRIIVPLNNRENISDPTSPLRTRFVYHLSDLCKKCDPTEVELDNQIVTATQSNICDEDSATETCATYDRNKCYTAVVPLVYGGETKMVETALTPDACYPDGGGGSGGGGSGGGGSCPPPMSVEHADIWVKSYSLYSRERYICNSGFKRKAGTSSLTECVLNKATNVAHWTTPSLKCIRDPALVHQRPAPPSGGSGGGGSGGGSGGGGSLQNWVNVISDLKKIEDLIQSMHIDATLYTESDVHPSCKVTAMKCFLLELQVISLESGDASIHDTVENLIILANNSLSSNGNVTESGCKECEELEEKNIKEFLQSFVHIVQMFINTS
B8: 3C5 H2L2 F(ab')2 (antibody, V domains shown)
VH: B3 VH with I48L, V71K
VL: B3 VL with V19I
notes: Tested as F(ab')2; also called 3C5 Fab
B9: 3C5 IgM + J*RI-N4D/N65D (IL-15 double mutant N4D/N65D) (antibody)
VH: B3 VH
VL: B3 VL
chain: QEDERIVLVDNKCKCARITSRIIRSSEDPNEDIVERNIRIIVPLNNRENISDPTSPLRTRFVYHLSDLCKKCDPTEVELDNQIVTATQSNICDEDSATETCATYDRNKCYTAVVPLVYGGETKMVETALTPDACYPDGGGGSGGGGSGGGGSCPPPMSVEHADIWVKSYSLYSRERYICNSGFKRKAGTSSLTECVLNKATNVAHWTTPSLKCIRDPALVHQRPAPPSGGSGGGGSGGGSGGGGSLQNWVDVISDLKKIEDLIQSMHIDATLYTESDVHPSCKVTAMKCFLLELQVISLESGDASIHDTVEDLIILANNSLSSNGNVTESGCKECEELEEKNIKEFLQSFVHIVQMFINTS

What was measured:
[1] = target: T1, IL-15 receptor (β and γ subunits) on …; test: cell-based or functional assay
PD-L1 = target: T3, PD-L1 (UniProt Q9NZQ7 19-238, limits assumed); test: ELISA on PD-L1
T3 construct: ELISA antigen; also called programmed cell death ligand-1 protein

[2] = target: T1, IL-15 receptor (β and γ subunits) on …; test: cell-based or functional assay; remark: listed apart in the source
[3] = target: T1, IL-15 receptor (β and γ subunits) on …; test: cell-based or functional assay; remark: listed apart in the source
[4] = target: T2, IL-15 receptor (β and γ subunits) on …; test: cell-based or functional assay
[5] = target: T1, IL-15 receptor (β and γ subunits) on …; test: cell-based or functional assay; remark: listed apart in the source
[6] = target: T4, human PD-L1 expressed on HEK-293T cells (human, UniProt Q9NZQ7 19-290); test: high-throughput flow cytometry on HEK-293T cells expressing human PD-L1 and its alanine mutants
T4 construct: whole, on cells
Protocol: The epitope that the 3C5 H2L2 (VH: SEQ ID NO: 91, VL: SEQ ID NO: 94) antibody binds to on human PD-L1 was mapped using Alanine-scanning mutagenesis. Epitope mapping was performed by constructing an Alanine scan library of human PD-L1 which was then expressed on HEK-293T cells. Binding of the 3C5 H2L2 F(ab′)2 to each HEK-293 transfected PD-L1 mutant version was evaluated by high-throughput flow cytometry.

[7] = target: T1, IL-15 receptor (β and γ subunits) on …; test: cell-based or functional assay; remark: listed apart in the source

T3 sequence (Q9NZQ7 19-238 limits assumed): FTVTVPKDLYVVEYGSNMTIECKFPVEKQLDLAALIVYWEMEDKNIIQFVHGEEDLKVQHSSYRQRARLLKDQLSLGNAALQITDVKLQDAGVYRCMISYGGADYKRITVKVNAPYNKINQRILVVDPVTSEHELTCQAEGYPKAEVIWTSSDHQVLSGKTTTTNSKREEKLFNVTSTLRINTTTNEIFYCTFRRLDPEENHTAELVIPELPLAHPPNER
T4 sequence (Q9NZQ7 19-290): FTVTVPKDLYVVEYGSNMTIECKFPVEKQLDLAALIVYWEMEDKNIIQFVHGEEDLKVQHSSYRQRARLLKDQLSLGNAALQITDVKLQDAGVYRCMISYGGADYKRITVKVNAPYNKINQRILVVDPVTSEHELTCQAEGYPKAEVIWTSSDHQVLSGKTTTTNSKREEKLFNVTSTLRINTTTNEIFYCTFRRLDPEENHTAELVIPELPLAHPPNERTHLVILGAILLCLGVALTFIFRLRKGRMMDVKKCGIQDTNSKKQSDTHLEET

Binder	CD8+ T cell proliferation (Ki-67) EC50 [1]	Kd (PD-L1)	CD8+ T cell proliferation (Ki-67) EC50, Donor 230 [2]	CD8+ T cell proliferation (Ki-67) EC50, Donor 403 [2]	NK cell proliferation (Ki-67) EC50, Donor 230 [3]	NK cell proliferation (Ki-67) EC50, Donor 403 [3]	further results
B1	0.64 nM	–	–	–	–	–	–
B2	0.51 nM	1.33 nM	–	–	–	–	–
B3	0.1 nM	0.04 nM	0.31 nM	0.51 nM	0.027 nM	0.027 nM	–
B4	–	–	–	–	–	–	cynomolgus CD8+ T cell proliferation (Ki-67), average EC50 [4]: 6.85 nM; human CD8+ T cell proliferation (Ki-67), average EC50 [5]: 3.22 nM
B5	–	–	> 80 nM	> 80 nM	> 80 nM	> 80 nM	–
B6	> 100 nM	0.05 nM	–	–	–	–	–
B7	–	–	0.03 nM	0.34 nM	0.63 nM	0.71 nM	–
B8	–	–	–	–	–	–	binding result [6]: binds
B9	–	–	–	–	–	–	CD8+ T cell proliferation (Ki-67), potency against the constructs with WT IL-15 [7]: 50 fold reduced potency; NK cell proliferation (Ki-67), potency against the constructs with WT IL-15 [7]: 100 fold reduced potency
